B1: TRIB1 (parent)
chain: SYVRSRKRLREEEAARLFKQIVSA

Variants of: B1
Assay: protein stability index of a GFP-peptide fusion (GPS, HEK-293T) (PSI 1-6); higher = more stable
Conditions: c terminus: a fixed tail appended
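Note: lentivirally expressed fusions sorted by FACS into six bins by GFP to DsRed ratio, PSI derived from sequencing read proportions per bin multiplied by bin number.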

Protein stability index of substitutions, site by site:
V3: M 1.58, S 2.36, I 1.69, N 2.08, T 2.12, W 1.61, R 2.63, Y 1.98, K 1.99, L 2.08
E11: M 1.66, G 1.33, I 1.4, V 1.75, Y 1.22, T 2.44, D 2.17, Q 1.9, F 3.54, S 2.69, K 2.25, A 2.05, W 2.05, N 2.13, H 2.41, R 1.54, P 1.85
K7: P 2.03, E 2.5, Y 1.93, I 1.86, C 2.34, S 2.53, G 2.99, T 2.52, N 2.15, W 1.62, Q 2.02, D 3.05, F 2.12, A 2.06, M 2.38, R 2.11, H 1.58
E12: A 2.16, Q 1.98, K 2.27, V 1.33, I 2.65, D 1.9, M 2.48, N 2.61, T 2.03, C 1.76, L 2, H 3.01, Y 2.37, P 2.03
L9: R 2.07, S 2.44, D 2.47, H 2.24, F 1.68, Y 2, M 3.22, I 3.23, A 1.91, V 1.75, C 1.5, K 2.25, Q 2.3, T 2.24, P 1.86, W 2.56
R6: C 1.85, L 1.85, Y 2.23, A 1.89, F 1.42, T 2.07, V 1.95, P 2.66, N 1.81, M 1.54, G 1.72, W 1.97, H 2.33, Q 1.88, S 2.21, K 2.63, D 2.99, I 2
E13: H 2.47, D 1.73, C 2.05, A 1.27, G 3.21, I 2.52, F 2.37
R4: N 2.76, D 2.44, S 1.87, M 2.12, Q 2.09, Y 2.11, L 2.35, A 1.41, C 1.7, E 2.76, V 2.28, H 2.56, P 1.77, F 1.22, W 1.29, T 1.8, I 1.57
R10: F 2.04, I 1.83, C 1.5, Q 2.22, L 2.23, Y 1.95, S 2.34, E 2.27, N 2.54, G 3.19, W 2.12, D 2.28, M 1.35, T 2.67, P 2.28, V 1.69, H 2.63, A 2.94, K 3.08
S5: C 1.62, F 2.4, I 1.73, E 1.39, P 2.27, Y 2.65, H 1.94, A 1.76, M 1.92, N 2.12, G 3.13, K 2.31, D 2.24, L 2.5, T 2.21
R8: E 3.2, C 2.05, W 1.95, L 2.03, Q 2.38, V 2.37, S 1.99, N 2.6, H 1.96, I 2.3, K 2.49, D 1.78, A 2.3, F 1.48, Y 1.99, P 2.09, M 1.58

From the supplement of paper PMC10567573
